# Results from publication PMC5364666, “Human MFAP1 is a cryptic ortholog of the Saccharomyces cerevisiae Spp381 splicing factor” (BMC Evolutionary Biology, 2017).
# B1: S. cerevisiae Prp38 (pre-mRNA processing factor 38 domain containing protein), full-length wild type (natural protein, UniProt Q00723 1-242, looked up)
# chain: MAVNEFQVESNISPKQLNNQSVSLVIPRLTRDKIHNSMYYKVNLSNESLRGNTMVELLKVMIGAFGTIKGQNGHLHMMVLGGIEFKCILMKLIEIRPNFQQLNFLLNVKNENGFDSKYIIALLLVYARLQYYYLNGNNKNDDDENDLIKLFKVQLYKYSQHYFKLKSFPLQVDCFAHSYNEELCIIHIDELVDWLATQDHIWGIPLGKCQWNKIYNSDEESSSSESESNGDSEDDNDTSSES
# notes: Prp38, S. cerevisiae, ORF amplified from genomic DNA; also called scPrp38; source: E. coli Rosetta 2 (DE3) or BL21 (DE3) RIL, purified (Ni-NTA, TEV cleavage, SEC); not shown: His6, N-terminal, cleaved
# B2: S. cerevisiae Spp381 residues 177-248 (domain or fragment, UniProt P38282 177-248, looked up)
# chain: NDEVDSEKERQKWFERQNERKQKHRRIQLAKQRESEEYEAKRFEAMQKGKDGNTKYDVILDKEKEKLDHKKQ
# notes: also called scSpp381^177-248; source: E. coli Rosetta 2 (DE3) or BL21 (DE3) RIL, purified (Ni-NTA, TEV cleavage, SEC); not shown: His6, N-terminal, cleaved
# B3: S. cerevisiae Snu23 (23 kDa small nuclear ribonucleoprotein component) residues 116-169 (domain or fragment, UniProt Q12368 116-169, looked up)
# chain: LIIDIRDNDDVPQEEFELCYHNLIKDFVEVRSMETQSKRKRLLDTDVEKAKKVA
# B4: Human MFAP1 (microfibrillar-associated protein 1) residues 267-344 (domain or fragment)
# chain: not shown
# notes: the minimal fragment used for crystallization of the hsPrp38-hsMFAP1 complex; source: E. coli Rosetta 2 (DE3) or BL21 (DE3) RIL, purified (Ni-NTA, TEV cleavage, SEC); not shown: His6, N-terminal, cleaved
# Key:
# Details in all cases: both partners purified
# [1] = target: T1, S. cerevisiae Spp381 (pre-mRNA-splicing factor suppressor of prp38-1), full-length wild type (S. cerevisiae, UniProt P38282 1-291); assay: SEC; analytical gel filtration of two proteins: 50 uM each, equimolar, incubated 30 min at 4 °C in SEC buffer (10 mM Tris-HCl pH 8.0, 300 mM NaCl, 0.1 mM EDTA, 1 mM DTT); Superdex 75 or Superdex 200 Increase columns at 4 °C; peak fractions by SDS-PAGE
# T1 construct: Spp381, S. cerevisiae, UniProt P38282, ORF amplified from genomic DNA; also called scSpp381; scSpp381^FL; source: E. coli Rosetta 2 (DE3) or BL21 (DE3) RIL, purified (Ni-NTA, TEV cleavage, SEC); not shown: His6, N-terminal, cleaved
# T1 sequence (looked up): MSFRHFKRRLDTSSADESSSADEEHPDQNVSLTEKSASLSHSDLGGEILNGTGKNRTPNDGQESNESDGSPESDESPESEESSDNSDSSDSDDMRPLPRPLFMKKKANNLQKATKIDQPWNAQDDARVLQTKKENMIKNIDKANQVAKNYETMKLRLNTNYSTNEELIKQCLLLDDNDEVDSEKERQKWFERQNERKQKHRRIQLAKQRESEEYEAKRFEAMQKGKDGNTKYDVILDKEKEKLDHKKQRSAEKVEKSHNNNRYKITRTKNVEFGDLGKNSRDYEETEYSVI
# [2] = target: B1; assay: as above
# [3] = target: B1; assay: SEC; analytical gel filtration of three proteins (scSnu23 116-169, scPrp38, scSpp381 177-248) on a Superdex 75 10/300 column; fractions by SDS-PAGE
Binder,binding result [2],further results
B1,,binding result [1]: binds
B2,binds,
B3,,binding result [3]: binds
B4,binds,
